Assay results taken from paper doi:10.1101/2025.09.13.676064, “Structural Hijacking of FcRn by Human Astrovirus Spikes Reveals Conserved Epitopes for Broad-Spectrum Antivirals” (bioRxiv, 2025).

B1: HAstV-8 capsid spike domain (residues 424-645) (domain or fragment)
chain: SIPEPGEQFRVLLTVGPPMAPNTANSQNWVNKTIVPPENQYTVKIGIDLEHYTTMQGFTPVESVSWYTADFQPSDEPSPIPGLYARVNNTKKADVYGVQQFKSSHTNNRHQITSVFLVRVTTSFQVINYTSYFIRGAESGSNVSNLKIRDQTYHTPLQFTQGKWYLLTSTVMHDGPTSSGWVWMNQELTNNIAYRVDPGMMYLITPPPAASQLYFELHTVLP
modifications: biotin (biotinylated spike; BirA co-transfected)
notes: Human astrovirus serotype 8 capsid protein (ORF2-encoded precursor), spike domain, residues 424-645 of Q9IFX1; Codon-optimised, in pcDNA3.1; also called HAstV8 spike; serotype 8 spike; source: Expi293F cells, co-transfected with BirA plasmid, purified from the supernatant (Ni-IMAC, SEC Superdex 200); not shown: AviTag, C-terminal, kept
B2: HAstV-2 capsid spike domain (residues 428-647) (domain or fragment)
chain: SGELRVLLTVGSIMSPNSADRQVWLNKTLTAPGTNSNDNLVKIAHDLGHYLIMQGFMHIKTVEWYTPDFQPSRDPTPIAGMSVMVNITKKADVYFMKQFKNSYTNNRHQITSIFLIKPLADFKVQCYMSYFKRESHDNDGVANLTVRSMTSPETIRFQVGEWYLLTSTTLKENNLPEGWVWDRVELKSDTPYYADQALTYFITPPPVDSQILFEGNTTLP
modifications: biotin (biotinylated spike; BirA co-transfected)
notes: Human astrovirus serotype 2 capsid protein (ORF2-encoded precursor), spike domain, residues 428-647 of Q82446.1; Codon-optimised, in pcDNA3.1; also called HAstV2 spike; serotype 2 spike; source: Expi293F cells, co-transfected with BirA plasmid, purified from the supernatant (Ni-IMAC, SEC Superdex 200); not shown: AviTag, C-terminal, kept

How the values were obtained:
[1] = target: T1, untagged recombinant human FcRn extracellular domain (neonatal Fc receptor; α-chain with β2-microglobulin) (human, UniProt P55899 24-297; P61769 21-119); assay: BLI; biotinylated spike immobilised on streptavidin (SA) biosensors; FcRn in solution, 2-fold dilutions 1,000 to 31.25 nM; 23°C; pH 6.0; 1:1 binding model; Octet Red; details: both partners purified
T1 construct: Human FcRn α-chain (heavy chain), residues 24-297 of UniProt P55899; Human β2-microglobulin, residues 21-119 of UniProt P61769; Untagged; both chains cloned into separate phCMV3 vectors; also called human FcRn ectodomain; FcRn heterodimer; source: Expi293F cells, co-transfected (1:1), purified from the supernatant (human IgG column, SEC Superdex 200 Increase)
T1 sequence (P55899 24-297, chain 1 of 2): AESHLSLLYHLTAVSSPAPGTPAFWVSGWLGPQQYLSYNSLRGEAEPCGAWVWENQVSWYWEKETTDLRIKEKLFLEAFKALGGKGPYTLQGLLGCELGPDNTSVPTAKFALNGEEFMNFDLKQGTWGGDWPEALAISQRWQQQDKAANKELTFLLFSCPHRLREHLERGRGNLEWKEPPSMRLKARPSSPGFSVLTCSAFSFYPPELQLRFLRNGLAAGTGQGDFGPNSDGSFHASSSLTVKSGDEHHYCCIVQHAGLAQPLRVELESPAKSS
T1 sequence (P61769 21-119, chain 2 of 2): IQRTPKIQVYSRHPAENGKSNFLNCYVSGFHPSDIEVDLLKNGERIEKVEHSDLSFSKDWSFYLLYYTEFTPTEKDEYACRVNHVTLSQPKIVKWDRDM

[2] = target: T1, untagged recombinant human FcRn …; assay: BLI; biotinylated spike immobilised on streptavidin (SA) biosensors; FcRn in solution, 2-fold dilutions 1,000 to 31.25 nM; 23°C; pH 7.5; 1:1 binding model; Octet Red; details: both partners purified

Binder	Kd [1] [nM]	Kd [2] [nM]
B1	60	458
B2	42	898
